Data on one molecule can be found in patent publication US20210340207A1 (Merck Sharp & Dohme, published 2021).

*1 amine or outer side, *2 acyl side, *3 side chain or, on linkers, in order; H or OH if unused. Side-chain parts run from the residue outwards. [ ]: non-standard residue; d: D form. pAMF = para-azidomethylphenylalanine, [N-]=[N+]=NCc1ccc(C[C@H](N[*:1])C(=O)[*:2])cc1

The target in test [1] is T1, human IL-2Rαβγc (on Kit225-STAT5 reporter cells, NK-92 cells, primary Treg cells) (human, UniProt P01589 22-272; P14784 27-551; P31785 23-369).
T1 sequence (looked up) 1: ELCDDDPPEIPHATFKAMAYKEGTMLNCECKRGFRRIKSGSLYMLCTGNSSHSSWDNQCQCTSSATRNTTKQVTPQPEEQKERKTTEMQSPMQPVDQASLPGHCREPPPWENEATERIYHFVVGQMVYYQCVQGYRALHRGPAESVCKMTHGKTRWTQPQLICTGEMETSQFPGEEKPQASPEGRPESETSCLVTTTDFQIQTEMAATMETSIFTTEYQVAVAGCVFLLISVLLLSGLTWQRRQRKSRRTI
T1 sequence (looked up) 2: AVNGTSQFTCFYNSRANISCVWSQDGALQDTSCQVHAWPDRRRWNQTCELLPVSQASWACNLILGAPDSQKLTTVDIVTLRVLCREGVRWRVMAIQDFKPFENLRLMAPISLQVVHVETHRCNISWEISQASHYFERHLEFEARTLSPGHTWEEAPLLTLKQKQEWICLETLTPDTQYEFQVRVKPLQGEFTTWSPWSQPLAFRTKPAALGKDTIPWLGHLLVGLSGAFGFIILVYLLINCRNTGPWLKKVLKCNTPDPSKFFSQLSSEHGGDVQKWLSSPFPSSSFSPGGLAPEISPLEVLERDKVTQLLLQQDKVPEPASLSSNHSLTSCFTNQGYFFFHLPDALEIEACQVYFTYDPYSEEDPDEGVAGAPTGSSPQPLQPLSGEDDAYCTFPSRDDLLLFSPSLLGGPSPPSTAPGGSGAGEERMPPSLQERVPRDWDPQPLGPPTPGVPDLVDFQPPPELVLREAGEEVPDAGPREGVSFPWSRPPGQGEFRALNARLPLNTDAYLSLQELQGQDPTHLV
T1 sequence (looked up) 3: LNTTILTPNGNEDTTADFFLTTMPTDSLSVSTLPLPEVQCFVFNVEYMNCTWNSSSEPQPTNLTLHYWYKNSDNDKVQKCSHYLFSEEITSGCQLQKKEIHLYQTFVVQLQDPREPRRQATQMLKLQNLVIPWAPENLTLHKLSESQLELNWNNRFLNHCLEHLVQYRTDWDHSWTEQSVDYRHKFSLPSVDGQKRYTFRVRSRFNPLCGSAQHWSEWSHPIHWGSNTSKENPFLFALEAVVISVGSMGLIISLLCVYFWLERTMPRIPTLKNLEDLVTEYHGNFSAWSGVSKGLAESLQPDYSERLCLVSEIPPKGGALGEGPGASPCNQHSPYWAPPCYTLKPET
The test is described as follows: cell-based or functional assay.

Test [2] concerns the target T2, mouse IL-2Rαβγc (on CTLL2-STAT5 reporter cells) (mouse, UniProt P01590 22-268; P16297 27-539; P34902 23-369).
T2 sequence (looked up) 1: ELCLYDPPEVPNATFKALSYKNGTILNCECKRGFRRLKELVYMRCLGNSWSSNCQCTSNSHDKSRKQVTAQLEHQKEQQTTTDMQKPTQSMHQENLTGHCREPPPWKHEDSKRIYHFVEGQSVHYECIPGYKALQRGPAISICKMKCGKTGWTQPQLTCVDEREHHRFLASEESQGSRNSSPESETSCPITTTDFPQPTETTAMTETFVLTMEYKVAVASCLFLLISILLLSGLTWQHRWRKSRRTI
T2 sequence (looked up) 2: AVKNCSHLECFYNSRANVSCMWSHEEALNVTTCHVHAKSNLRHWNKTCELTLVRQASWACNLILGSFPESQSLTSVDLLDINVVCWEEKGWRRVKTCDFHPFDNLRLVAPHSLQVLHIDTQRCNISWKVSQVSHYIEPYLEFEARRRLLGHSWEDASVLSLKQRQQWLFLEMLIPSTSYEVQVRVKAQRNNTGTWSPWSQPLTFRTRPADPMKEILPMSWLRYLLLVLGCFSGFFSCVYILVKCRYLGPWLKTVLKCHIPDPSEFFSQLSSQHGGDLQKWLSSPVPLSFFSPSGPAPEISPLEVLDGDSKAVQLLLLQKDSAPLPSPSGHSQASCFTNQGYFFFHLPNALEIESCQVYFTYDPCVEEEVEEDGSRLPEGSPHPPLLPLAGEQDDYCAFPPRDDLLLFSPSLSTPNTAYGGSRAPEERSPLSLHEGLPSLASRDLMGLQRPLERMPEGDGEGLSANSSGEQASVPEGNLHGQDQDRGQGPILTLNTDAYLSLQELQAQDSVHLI
T2 sequence (looked up) 3: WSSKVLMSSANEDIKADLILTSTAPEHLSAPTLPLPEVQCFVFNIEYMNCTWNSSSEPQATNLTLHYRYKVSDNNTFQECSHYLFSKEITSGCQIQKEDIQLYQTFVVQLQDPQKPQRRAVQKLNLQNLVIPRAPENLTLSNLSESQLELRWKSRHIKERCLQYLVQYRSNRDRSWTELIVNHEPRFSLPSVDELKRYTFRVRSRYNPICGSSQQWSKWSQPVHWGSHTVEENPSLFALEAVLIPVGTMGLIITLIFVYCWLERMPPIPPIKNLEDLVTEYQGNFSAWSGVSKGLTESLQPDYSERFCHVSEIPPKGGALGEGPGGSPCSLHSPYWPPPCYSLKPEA
The test is described as follows: cell-based or functional assay.

Test [3] addresses T3, human IL-2Rβγc (on DERL-7 cells, U2OS IL2RB/IL2RG cells, CD25 knockout Kit225-STAT5 cells, primary CD8+ CTLs) (human, UniProt P14784 27-551; P31785 23-369).
T3 sequence (looked up) 1: T1 sequence (looked up) 2
T3 sequence (looked up) 2: T1 sequence (looked up) 3
The test is described as follows: cell-based or functional assay.

Test [4] addresses T4, Human IL-2Rβ, His tag (Table 10) (human, UniProt P14784 27-239, limits assumed).
T4 construct: not shown: polyhistidine tag
T4 sequence (looked up): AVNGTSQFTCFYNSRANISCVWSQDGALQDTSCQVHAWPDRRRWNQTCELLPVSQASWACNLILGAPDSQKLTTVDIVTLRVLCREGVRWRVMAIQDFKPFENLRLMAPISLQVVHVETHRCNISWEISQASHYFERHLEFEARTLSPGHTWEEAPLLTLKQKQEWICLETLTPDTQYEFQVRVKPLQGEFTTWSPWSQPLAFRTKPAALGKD
The test is described as follows: SPR (Biacore T200). As to the method: A Surface Plasmon Resonance (SPR) assay on a Biacore T200 (GE Healthcare) instrument was used to determine the monovalent affinities of pegylated aldesleukin variants against polyhistidine-tagged or Fc-tagged IL-2 Receptors. Biacore T200 Evaluation Software was used to fit each titration series to a 1:1 binding model or steady state affinity. The association (kₒₙ, M⁻¹ s⁻¹) and dissociation (koff, s⁻¹) rate constants were determined for each set of titrations and used to calculate the dissociation constant, KD=koff/kₒₙ, of each sample against each receptor. koff/kₒₙ values are not reported herein.
(In general: SPR reads the build-up and loss of mass on a sensor chip optically.)

B1: Ald_S4pAMF(PEG1)/R37A/F41K (CON1) (ligand)
chain: PTS[pAMF]([DBCO‑triazole-mPEG 30 kDa])STKKTQLQLEHLLLDLQMILNGINNYKNPKLTAMLTKKFYMPKKATELKHLQCLEEELKPLEEVLNLAQSKNFHLRPRDLISNINVIVLELKGSETTFMCEYADETATIVEFLNRWITFSQSIISTLT
modifications: not fully specified (bridges)
notes: also called Des-A1_IL-2_S4pAMF(PEG1)/R37A/F41K/C124S
For the molecule B1, in test [1], the “Kit225-STAT5 EC50” value stood at 0.45 nM, the “Kit225-STAT5 EC50 Fold-change” value is 437 fold, the “NK-92 EC50 Fold-change” value was 117 fold and the “NK-92 proliferation EC50” value was 0.68 nM. Further, in test [2], the “STAT5-CTLL2 EC50” value turned out to be 57.4 nM and the “STAT5-CTLL2 EC50 Fold-change” value stood at 5300 fold. In addition, in test [3], the “DERL-7 EC50 Fold-change” value came to 17 fold and the “DERL-7 proliferation EC50” value was found to be 0.73 nM. Further, in test [4], the “fold lower affinity than aldesleukin” value is 6 fold.
